Results as given in paper PMC9834408, “The SPOC domain is a phosphoserine binding module that bridges transcription machinery with co- and post-transcriptional regulators” (Nature Communications, 2023).

Molecular target: 2×S2P CTD diheptapeptide
Experiment: fluorescence polarisation; fluorescence anisotropy; 90 nM labelled peptide (Atto-488 on CTD peptides, FAM on NCoR and FMR1 peptides) titrated with increasing concentrations of SPOC domain; 20 °C; 25 mM Tris-Cl pH 7.4, 25 mM NaCl, 1 mM DTT; three independent dilution series

Kd [µM]	Binder
8.4	PHF3 SPOC R1248A (domain or fragment) STFLARLNFIWKGFINMPSVAKFVTKAYPVSGSPEYLTEDLPDSIQVGGAISPQTVWDYVEKIKASGTKEICVVRFTPVTEEDQISYTLLFAYFSSRKRYGVAANNMKQVKDMYLIPLGATDKIPHPLVPFDGPGLELHRPNLLLGLIIRQKLKRQHS
22.4	DIDO SPOC R1096A (domain or fragment) TLFLSRLSTIWKGFINMQSVAKFVTKAYPVSGCFDYLSEDLPDTIHIGGAIAPKTVWDYVGKLKSSVSKELCLIRFHPATEEEEVAYISLYSYFSSRGRFGVVANNNRHVKDLYLIPLSAQDPVPSKLLPFEGPGLESPRPNIILGLVICQKIKRPANS
